Experimental data as given in paper PMC6224492 (2018).
The star is where a group is joined. FITC = O=C1OC2(c3ccc(O)cc3Oc3cc(O)ccc32)c2ccc(NC(=S)*)cc21; Ahx = NCCCCCC(=O)O

T1: full-length PPARγ with GW1929 (Homo sapiens)
T1 chain: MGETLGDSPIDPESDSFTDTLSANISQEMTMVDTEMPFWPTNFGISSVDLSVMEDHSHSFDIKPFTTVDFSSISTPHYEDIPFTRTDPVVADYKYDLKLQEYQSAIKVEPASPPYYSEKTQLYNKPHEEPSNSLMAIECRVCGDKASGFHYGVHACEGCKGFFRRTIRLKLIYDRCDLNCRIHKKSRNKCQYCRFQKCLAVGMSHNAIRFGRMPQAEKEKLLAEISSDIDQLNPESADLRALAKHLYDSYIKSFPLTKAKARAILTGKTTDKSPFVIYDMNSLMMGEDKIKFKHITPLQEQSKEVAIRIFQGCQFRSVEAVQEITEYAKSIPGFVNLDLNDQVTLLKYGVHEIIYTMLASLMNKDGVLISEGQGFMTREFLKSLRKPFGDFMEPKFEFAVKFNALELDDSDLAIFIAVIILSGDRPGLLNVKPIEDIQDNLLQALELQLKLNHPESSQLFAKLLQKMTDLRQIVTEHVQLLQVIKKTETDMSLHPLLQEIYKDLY


Tests used:
[1] = target: full-length PPARγ (isoform 2), delipidated, no ligand (human) (UniProt P37231); assay: FP
[2] = target: T1, full-length PPARγ with GW1929; assay: FP; GW1929

Row | Kd [1] [µM] | Kd [2] [µM] | Molecule
1 | 7.4 |  | FITC-labeled NCoR1 corepressor peptide (residues 2256-2278)
2 |  | 9 | {FITC-Ahx}-DPASNLGLEDIIRKALMGSFDDK-NH2 [FITC-labeled NCoR1 corepressor peptide (residues 2256-2278)]
